Measurements published in patent publication US6440702.

T1: human CNTF receptor alpha component on MG87/CNTFR fibroblasts (human, UniProt P26992 23-342)
T1 construct: whole, on cells; Mouse fibroblast line transfected with the human CNTFalpha receptor gene; also called CNTFRalpha; MG87/huCNTFR
T1 sequence (looked up): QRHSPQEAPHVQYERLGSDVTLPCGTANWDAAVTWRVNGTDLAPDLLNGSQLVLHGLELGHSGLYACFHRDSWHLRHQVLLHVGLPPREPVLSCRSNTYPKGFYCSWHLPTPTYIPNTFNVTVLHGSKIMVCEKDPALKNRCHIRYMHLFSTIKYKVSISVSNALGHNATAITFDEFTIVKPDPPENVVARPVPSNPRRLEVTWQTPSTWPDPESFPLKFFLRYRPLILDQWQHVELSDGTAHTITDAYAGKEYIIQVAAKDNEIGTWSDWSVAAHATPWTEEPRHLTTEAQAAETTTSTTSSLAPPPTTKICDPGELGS

T2: rat CNTF receptor on rat superior cervical ganglia (SCG) neurons (rat, UniProt Q08406 23-342)
T2 construct: whole, on cells; also called rat receptor; SCGs
T2 sequence (looked up): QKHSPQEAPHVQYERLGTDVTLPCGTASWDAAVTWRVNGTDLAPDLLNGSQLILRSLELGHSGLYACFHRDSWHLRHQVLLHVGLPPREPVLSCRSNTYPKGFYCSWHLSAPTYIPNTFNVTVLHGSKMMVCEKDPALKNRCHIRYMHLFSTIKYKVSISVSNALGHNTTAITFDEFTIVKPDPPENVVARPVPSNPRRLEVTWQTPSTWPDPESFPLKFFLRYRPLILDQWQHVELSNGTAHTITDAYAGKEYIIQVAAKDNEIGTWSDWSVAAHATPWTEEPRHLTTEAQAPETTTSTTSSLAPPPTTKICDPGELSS


Key:
[1] = biological target: T1, human CNTF receptor alpha component on …; test: displacement of 125I-rat CNTF from MG87/CNTFR cells (human CNTF receptor)
Method: MG87/CNTFR is a fibroblast cell line transfected with the human CNTFα receptor gene (Squinto, et al., 1990, Neuron 5:757–766; Davis et al., 1991, Science 253:59–63). Binding Assays Binding was performed directly on cell monolayers. Cells in culture wells were washed once with assay buffer consisting of phosphate buffered saline (PBS; pH 7.4), 0.1 mM bacitracin, 1 mM PMSF, 1 µg/ml leupeptin, and 1 mg/ml BSA. […] Non-specific binding was determined in the presence of 1,000-fold excess of unlabelled CNTF. Specific binding towards MG87/CNTFR was 80–90%. Data were analyzed using the […] program (ISI, Philadelphia, Pa.).

[2] = biological target: T2, rat CNTF receptor on rat superior …; test: displacement of 125I-rat CNTF from rat SCG neuron monolayers

IC50 [1] [nM]	IC50 [2] [nM]	fold less potent than rat CNTF [1] [fold]	fold less potent than unlabelled rat CNTF in displacing 125I-rat CNTF [2] [fold]	Binder
2.8	0.28			recombinant rat CNTF (ciliary neurotrophic factor) (ligand, also called unlabelled rat CNTF) AFAEQTPLTLHRRDLCSRSIWLARKIRSDLTALMESYVKHQGLNKNINLDSVDGVPVASTDRWSEMTEAERLQENLQAYRTFQGMLTKLLEDQRVHFTPTEGDFHQAIHTLMLQVDAFAYQLEELMVLLEQKIPENEADGMPATVGDGGLFEKKLWGLKVLQELSQWTVRSIHDLRVISSHQMGISALESHYGAKDKQM
30	25	12	90	recombinant human CNTF (ciliary neurotrophic factor) (ligand, Position numbers (C17, Q63) count the methionine as 1; also called rHCNTF; hCNTF) AFTEHSPLTPHRRDLCSRSIWLARKIRSDLTALTESYVKHQGLNKNINLDSADGMPVASTDQWSELTEAERLQENLQAYRTFHVLLARLLEDQQVHFTPTEGDFHQAIHTLLLQVAAFAYQIEELMILLEYKIPRNEADGMPINVGDGGLFEKKLWGLKVLQELSQWTVRSIHDLRFISSHQTGIPARGSHYIANNKKM
